# Test results from article PMC4263767, “IL-28B is a Key Regulator of B- and T-Cell Vaccine Responses against Influenza” (PLoS Pathogens, 2014).
# Entries after “also recorded” stand apart in the source; their conditions may differ.
# B1: IL-28B: recombinant IL-28B, a member of the interferon (IFN)-λ family (protein)
# chain: VPVARLRGALPDARGCHIAQFKSLSPQELQAFKRAKDALEESLLLKDCKCRSRLFPRTWDLRQLQVRERPVALEAELALTLKVLEATADTDPALGDVLDQPLHTLHHILSQLRACIQPQPTAGPRTRGRLHHWLHRLQEAPKKESPGCLEASVTFNLFRLLTRDLNCVASGDLCV
# modifications: left off: His tag, end not stated, kept
# notes: recombinant IL-28B, a member of the interferon (IFN)-λ family
# Columns and labels:
# [1] = test system: B-cells in PBMCs from healthy volunteers; experiment: H1N1-stimulated B-cell proliferation (Cell Trace Violet); format: cell-based, human
# [2] = test system: PBMCs from healthy volunteers; experiment: Cytokine release by H1N1-stimulated healthy volunteer PBMCs, 5 days (luminex); format: cell-based, human
# [3] = test system: PBMCs from healthy volunteers; format: cell-based, human
# [4] = test system: T-cells, monocytes and macrophages; details: ref [42], [43]; cited from earlier work
# Excerpt: The IFN-λ family (Interleukin-28A, -28B, -29, and IFN-λ4) is a recently described class of IFNs with antiviral properties similar to IFN-α and -β [14]–[17]. IFN-λ is known to induce phosphorylation of STAT-1 and -2 via binding to its receptor, which is a heterodimer consisting of the IL-28 receptor alpha subunit (IL28RA) and IL-10 receptor beta subunit (IL10RB). […] Furthermore, IFN-λs induced the development of T-regu ... || IL-28B (IFN-λ3) belongs to the family of IFN-lambdas and shares antiviral properties similar to IFN-α via induction of interferon stimulated genes (ISGs) such as MX1 or OAS1 [41]. […] IL-12 is a key cytokine for the induction of Th1 cells and cytotoxic lymphocytes, [43]. SNPs in the IL-28B gene (minor-allele genotypes) have been associated with reduced IL-28B expression, [29]–[33], which could impact adaptive immune functions during vaccination. One limitation of our study is that we d ...
# [5] = test system: CD3+CD4+ T-cells in PBMCs from transplant recipients; format: cell-based, human
# [6] = test system: PBMCs from healthy volunteers; experiment: Time course of cytokine release, independently recruited healthy volunteers (S3 Figure); format: cell-based, human; details: IL-28B 100 ng/ml
# Excerpt: Two luminex-based cytokine profiling kits were used (Eve Technologies, Calgary, Canada). (i) 17-plex: Fractalkine, IFN-α, IFN-γ, GRO, MCP-3, IL-13, sCD40-L, IL-9, IL-1β, IL-2, IL-4, IL-5, IL-6, IP-10, MCP-1, MIP-1α, and TNF-α. (ii) 41-plex: EGF, Eotaxin, FGF-2, FLT3, Fractalkine, G-CSF, GM-CSF, GRO. IFN-α2, IFN-γ, IL-1α, IL-1β, IL-1ra, IL-2, IL-3, IL-4, IL-5, IL-6, IL-7, IL-8, IL-9, IL-10, IL-12p40, IL-12p70, IL-13, IL-15, IL-17, IP-10, MCP-1, MCP-3, MDC, MIP-1α, MIP-1β, PDGF AA, PDGF AB/BB, RANTES, sCD40L, sIL2ra, TGF-α, TNF-α, TNF-β, and VEGF. Our independent experiment for examining a time course of cytokine induction was a custom-plex based on the 17-plex and still run and analyzed by Eve Technologies.
# Supplementary file ppat.1004556.s003.tiff: S3 Figure A cytokine profile with pH1N1 stimulation +/− IL-28B pre-treatment (100 ng/ml) was performed. The time-points were collected within the same experiments. For the first 3 HVs studied, d+5 sample was not collected. Overall, the time-points d+1, d+3, d+7 were available in total 10 HVs and for d+5 in 7 HVs. Wilcoxon matched pairs rank test was used to test for significant difference. (TIFF) Click here for additional data file.
# [7] = with IL-28B, 5-day H1N1, HV PBMCs n=9, median (IQR)
molecule,measurement,setting,value
B1,reduction in proliferation capacity of memory B-cells,"[1]; 5-day H1N1, n = 6",70%
same,H1N1-stimulated B-cell proliferation (in words),"[1]; IL-28B 1, 10, 100 ng/mL, 5-day H1N1, n = 6",dose-dependent decrease
same,reduction of H1N1-stimulated B-cell proliferation,"[1]; abstract, in vitro",70%
same,production of B-cell trophic and Th2 cytokines (in words),"[2]; 5-day H1N1, n = 9","significant decrease in the production of cytokines trophic for B-cells such as GRO, Fractalkine, and Th2-cytokines (IL-4, IL-5, IL-9, and IL-13)"
same,"IFN-α2, ratio IL28/no IL28","[2]; 5-day H1N1, p=0.004",1.7
same,"sIL2Ra, ratio IL28/no IL28","[2]; 5-day H1N1, p=0.004",0.6
same,"Fractalkine, ratio IL28/no IL28","[2]; 5-day H1N1, p=0.008",0.3
same,"GRO, ratio IL28/no IL28","[2]; 5-day H1N1, p=0.008",0.0
same,"IL-9, ratio IL28/no IL28","[2]; 5-day H1N1, p=0.008",0.2
same,"sCD40L, ratio IL28/no IL28","[2]; 5-day H1N1, p=0.01",0.4
same,"IL-5, ratio IL28/no IL28","[2]; 5-day H1N1, p=0.02",0.0
same,"IL-13, ratio IL28/no IL28","[2]; 5-day H1N1, p=0.02",0.6
same,"IL-4, ratio IL28/no IL28","[2]; 5-day H1N1, p=0.03",0.5
same,"IL-6, ratio IL28/no IL28","[2]; 5-day H1N1, p=0.03",1.3
same,"TGF-α, ratio IL28/no IL28","[2]; 5-day H1N1, p=0.03",1.3
same,"IL-1β, ratio IL28/no IL28","[2]; 5-day H1N1, p=0.04",1.9
same,"IP-10, ratio IL28/no IL28","[2]; 5-day H1N1, p=0.08",0.3
same,"FLT3, ratio IL28/no IL28","[2]; 5-day H1N1, p=0.11",0.5
same,"IL-3, ratio IL28/no IL28","[2]; 5-day H1N1, p=0.16",0.3
same,"TNF-β, ratio IL28/no IL28","[2]; 5-day H1N1, p=0.16",0.6
same,"IL-15, ratio IL28/no IL28","[2]; 5-day H1N1, p=0.17",0.9
same,"MCP-3, ratio IL28/no IL28","[2]; 5-day H1N1, p=0.25",1.1
same,"PDGF AA, ratio IL28/no IL28","[2]; 5-day H1N1, p=0.25",1.0
same,"FGF2, ratio IL28/no IL28","[2]; 5-day H1N1, p=0.31",0.8
same,"GM-CSF, ratio IL28/no IL28","[2]; 5-day H1N1, p=0.38",0.7
same,"IFN-γ, ratio IL28/no IL28","[2]; 5-day H1N1, p=0.43",0.9
same,"IL-12p40, ratio IL28/no IL28","[2]; 5-day H1N1, p=0.44",0.7
same,"MIP-1β, ratio IL28/no IL28","[2]; 5-day H1N1, p=0.46",1.2
same,"Eotaxin, ratio IL28/no IL28","[2]; 5-day H1N1, p=0.47",0.5
same,"MCP-1, ratio IL28/no IL28","[2]; 5-day H1N1, p=0.55",0.4
same,"TNF-α, ratio IL28/no IL28","[2]; 5-day H1N1, p=0.55",1.0
same,"IL-12p70, ratio IL28/no IL28","[2]; 5-day H1N1, p=0.64",0.7
same,"IL-17, ratio IL28/no IL28","[2]; 5-day H1N1, p=0.69",0.2
same,"MIP-1α, ratio IL28/no IL28","[2]; 5-day H1N1, p=0.74",1.1
same,"RANTES, ratio IL28/no IL28","[2]; 5-day H1N1, p=0.74",1.2
same,"G-CSF, ratio IL28/no IL28","[2]; 5-day H1N1, p=0.75",1.0
same,"IL-7, ratio IL28/no IL28","[2]; 5-day H1N1, p=0.75",1.0
same,"IL-1α, ratio IL28/no IL28","[2]; 5-day H1N1, p=0.82",1.1
same,"IL-10, ratio IL28/no IL28","[2]; 5-day H1N1, p=0.82",1.0
same,"VEGF, ratio IL28/no IL28","[2]; 5-day H1N1, p=0.82",1.2
same,"IL-1ra, ratio IL28/no IL28","[2]; 5-day H1N1, p=0.84",1.1
same,"IL-2, ratio IL28/no IL28","[2]; 5-day H1N1, p=0.84",2.0
same,"IL-8, ratio IL28/no IL28","[2]; 5-day H1N1, p=0.95",0.9
same,"PDGF AB/BB, ratio IL28/no IL28","[2]; 5-day H1N1, p=0.95",1.3
same,"EGF, ratio IL28/no IL28","[2]; 5-day H1N1, p=1.00",1.0
same,"MDC, ratio IL28/no IL28","[2]; 5-day H1N1, p=1.00",1.0
same,"Th2-cytokines (in words, abstract)",[2]; in vitro,"suppressed Th2-cytokines (e.g. IL-4, IL-5, and IL-13)"
same,EGF,[2]; [7],3.7 (3.7-3.7) pg/mL
same,Eotaxin,[2]; [7],3.2 (3.2-6.9) pg/mL
same,FGF2,[2]; [7],13.1 (3.8-19.2) pg/mL
same,FLT3,[2]; [7],4.0 (3.2-9.4) pg/mL
same,Fractalkine,[2]; [7],4.2 (0.6-10.7) pg/mL
same,G-CSF,[2]; [7],3.2 (3.2-4.2) pg/mL
same,GM-CSF,[2]; [7],358.9 (3.2-480.7) pg/mL
same,GRO,[2]; [7],3.6 (3.6-3.6) pg/mL
same,IFN-α2,[2]; [7],2262.0 (808.2-3663.0) pg/mL
same,IFN-γ,[2]; [7],6028.0 (3513.0-9802.0) pg/mL
same,IL-1ra,[2]; [7],376.6 (3.2-838.8) pg/mL
same,IL-1α,[2]; [7],15.1 (7.8-18.6) pg/mL
same,IL-1β,[2]; [7],16.8 (6.8-29.2) pg/mL
same,IL-2,[2]; [7],16.5 (0.6-60.4) pg/mL
same,IL-3,[2]; [7],0.8 (0.6-3.5) pg/mL
same,IL-4,[2]; [7],16.2 (6.1-33.1) pg/mL
same,IL-5,[2]; [7],0.6 (0.6-8.3) pg/mL
same,IL-6,[2]; [7],215.5 (69.4-864.5) pg/mL
same,IL-7,[2]; [7],3.2 (3.2-3.2) pg/mL
same,IL-8,[2]; [7],1308.0 (789.8-1567.0) pg/mL
same,IL-9,[2]; [7],1.3 (0.6-6.7) pg/mL
same,IL-10,[2]; [7],2597.0 (2063.0-4353.0) pg/mL
same,IL-12p40,[2]; [7],3.2 (3.2-6.1) pg/mL
same,IL-12p70,[2]; [7],1.6 (1.0-2.3) pg/mL
same,IL-13,[2]; [7],96.8 (0.6-126.7) pg/mL
same,IL-15,[2]; [7],2.7 (1.2-3.0) pg/mL
same,IL-17,[2]; [7],0.6 (0.6-30.7) pg/mL
same,IP-10,[2]; [7],219.8 (3.2-2804.0) pg/mL
same,MCP-1,[2]; [7],53.8 (7.9-145.3) pg/mL
same,MCP-3,[2]; [7],9988.0 (8889.0-12741.0) pg/mL
same,MDC,[2]; [7],16.0 (16.0-27.2) pg/mL
same,MIP-1α,[2]; [7],5759.0 (2283.0-6915.0) pg/mL
same,MIP-1β,[2]; [7],3575.0 (1795.0-5820.0) pg/mL
same,PDGF AA,[2]; [7],0.6 (0.6 – 0.6) pg/mL
same,PDGF AB/BB,[2]; [7],8.9 (1.3-18.2) pg/mL
same,RANTES,[2]; [7],3640.0 (1941.0-6677.0) pg/mL
same,TGF-α,[2]; [7],11.8 (9.7-17.0) pg/mL
same,TNF-α,[2]; [7],297.0 (3.1-449.6) pg/mL
same,TNF-β,[2]; [7],12.0 (1.0-27.4) pg/mL
same,VEGF,[2]; [7],34.6 (15.6-46.3) pg/mL
same,sCD40L,[2]; [7],253.0 (140.1-456.3) pg/mL
same,sIL2Ra,[2]; [7],192.2 (140.8-236.1) pg/mL
same,reduction of IgG-production,"[3]; abstract, in vitro",> 70%
same,lower H1N1-stimulated IgG antibody production,"[3]; highest dose of IL-28B (100 ng/mL), 5-day H1N1, n = 8",70%
same,IL-12 production in monocytes and macrophages,[4],induce IL-12 production in monocytes and macrophages
same,fold reduction in IL-4 production by CD3+CD4+ T-cells,"[5]; IL-28B 100 ng/mL, 2 h before overnight H1N1, transplant recipients n = 47",> 2 -fold
same,sensitivity of IL-4 production to IL-28B by genotype,"[5]; minor allele (TG or GG) PBMCs, 45 transplant recipients",particularly pronounced in patients with a minor allele genotype; also recorded: strong sensitivity to IL-28B
same,IFN-γ (in words),[6],trend for upregulation
same,"Th1 and Th1-associated cytokines, early time-points (in words)",[6],"significantly up-regulated (IFN-α, IL12p40, TNF- α, and IL-6)"
same,"Th2 and Th2-associated cytokines, later time-points (in words)",[6],down-regulated
